Assay results published in PMC2990800 (Molecular and cellular endocrinology, 2010).

Target: the molecule itself
Test: FRET or BRET + split reporter

B1: Adenosine A2A receptor (receptor, UniProt P29274 1-412, looked up)
chain: MPIMGSSVYITVELAIAVLAILGNVLVCWAVWLNSNLQNVTNYFVVSLAAADIAVGVLAIPFAITISTGFCAACHGCLFIACFVLVLTQSSIFSLLAIAIDRYIAIRIPLRYNGLVTGTRAKGIIAICWVLSFAIGLTPMLGWNNCGQPKEGKNHSQGCGEGQVACLFEDVVPMNYMVYFNFFACVLVPLLLMLGVYLRIFLAARRQLKQMESQPLPGERARSTLQKEVHAAKSLAIIVGLFALCWLPLHIINCFTFFCPDCSHAPLWLMYLAIVLSHTNSVVNPFIYAYRIREFRQTFRKIIRSHVLRQQEPFKAAGTSARVLAAHGSDGEQVSLRLNGHPPGVWANGSAPHPERRPNGYALGLVSGGSAQESQGNTGLPDVELLSHELKGVCPEPPGLDDPLAQDGAGVS
stoichiometry N: ≥ 3
